Data set [1] concerns the target HPV68 L1 (0–505 aa), wild-type L1-only virus-like particle (human papillomavirus type 68). Put plainly: cryo-EM structure; VLPs (~2.0 mg/mL) vitrified on Quantifoil grids; icosahedral 3D reconstruction (AUTO3DEM or cisTEM).
Data set [2] deals with the molecule itself. The description is as above.

In data set [1], “HPV68 L1 (0–505 aa), wild-type L1-only virus-like particle (natural protein)” yielded a stoichiometry N of 72 pentamers.

B1: HPV70 L1 (10–506 aa), wild-type L1-only virus-like particle (domain or fragment, human papillomavirus type 70, UniProt P50793 10-504, looked up)
chain: TVYLPPPSVAKVVNTDDYVTRTGIYYYAGSSRLLTVGHPYFKVPVNGGRKQEIPKVSAYQYRVFRVSLPDPNKFGLPDPSLYNPDTQRLVWACIGVEIGRGQPLGVGVSGHPLYNRLDDTENSHFSSAVSTQDSRDNVSVDYKQTQLCIIGCVPAMGEHWAKGKACKSTQQGDCPPLELVNTAIEDGDMIDTGYGAMDFRTLQETKSEVPLDICQSVCKYPDYLQMSADVYGDSMFFCLRKEQLFARHFWNRGGMVGDTIPSELYIKGTDIRERPGTHVYSPSPSGSMVSSDSQLFNKPYWLHKAQGHNNGICWHNQLFITVVDTTRSTNFTLSACTETAIPAVYSPTKFKEYTRHVEEYDLQFIFQLCTITLTADVMAYIHTMNPAILDNWNIGVTPPPSASLVDTYRYLQSAAIACQKDAPTPEKKDPYDDLKFWNVDLKEKFSTELDQFPLGRKFLLQVGARRRPTIGPRKRPASAKSSSSASKHKRKRVSK
notes: Major capsid protein L1 of human papillomavirus type 70, residues 10-506 as printed; chosen from full-length and 5-, 10-, 15-aa N-terminal truncations; Non-fusion expression, no tag; Copies: 72 pentamers (T = 7 capsid) as printed, i.e. 360 chains; also called WT HPV70; HPV70 VLP; source: E. coli ER2566 (pTO-T7), purified (SP or XS sepharose; self-assembly on removal of DTT, Superdex 200); copies: …
In the case of B1, the “stoichiometry N” value in data set [2] was 72 pentamers.

B2: HPV39 L1 (15–505 aa), wild-type L1-only virus-like particle (domain or fragment)
chain: PPSVAKVVNTDDYVTRTGIYYYAGSSRLLTVGHPYFKVGMNGGRKQDIPKVSAYQYRVFRVTLPDPNKFSIPDASLYNPETQRLVWACVGVEVGRGQPLGVGISGHPLYNRQDDTENSPFSSTTNKDSRDNVSVDYKQTQLCIIGCVPAIGEHWGKGKACKPNNVSTGDCPPLELVNTPIEDGDMIDTGYGAMDFGALQETKSEVPLDICQSICKYPDYLQMSADVYGDSMFFCLRREQLFARHFWNRGGMVGDAIPAQLYIKGTDIRANPGSSVYCPSPSGSMVTSDSQLFNKPYWLHKAQGHNNGICWHNQLFLTVVDTTRSTNFTLSTSIESSIPSTYDPSKFKEYTRHVEEYDLQFIFQLCTVTLTTDVMSYIHTMNSSILDNWNFAVAPPPSASLVDTYRYLQSAAITCQKDAPAPEKKDPYDGLKFWNVDLREKFSLELDQFPLGRKFLLQARVRRRPTIGPRKRPAASTSSSSATKHKRKRVSK
notes: Major capsid protein L1 of human papillomavirus type 39, residues 15-505 as printed; chosen from full-length and 5-, 10-, 15-aa N-terminal truncations; Non-fusion expression, no tag; Copies: 72 pentamers (T = 7 capsid) as printed, i.e. 360 chains; also called WT HPV39; HPV39 VLP; source: E. coli ER2566 (pTO-T7), purified (SP or XS sepharose; self-assembly on removal of DTT, Superdex 200); copies: …
As to B2, the “stoichiometry N” value in data set [2] came to 72 pentamers.

The stoichiometry N is a count of units in the complex or per binding partner.
